According to patent US20140274782A1, “AFFINITY REAGENTS AND METHODS FOR DETECTION, PURIFICATION, AND PROTEOMIC ANALYSIS OF METHYLATED PROTEINS” (The Board of Trustees of the Leland Stanford Junior …, priority 2013, published 2014):

T1: G9a and GLP (Homo sapiens, UniProt Q96KQ7+Q9H9B1)
T1 sequence (Q96KQ7 2-1210 limits assumed): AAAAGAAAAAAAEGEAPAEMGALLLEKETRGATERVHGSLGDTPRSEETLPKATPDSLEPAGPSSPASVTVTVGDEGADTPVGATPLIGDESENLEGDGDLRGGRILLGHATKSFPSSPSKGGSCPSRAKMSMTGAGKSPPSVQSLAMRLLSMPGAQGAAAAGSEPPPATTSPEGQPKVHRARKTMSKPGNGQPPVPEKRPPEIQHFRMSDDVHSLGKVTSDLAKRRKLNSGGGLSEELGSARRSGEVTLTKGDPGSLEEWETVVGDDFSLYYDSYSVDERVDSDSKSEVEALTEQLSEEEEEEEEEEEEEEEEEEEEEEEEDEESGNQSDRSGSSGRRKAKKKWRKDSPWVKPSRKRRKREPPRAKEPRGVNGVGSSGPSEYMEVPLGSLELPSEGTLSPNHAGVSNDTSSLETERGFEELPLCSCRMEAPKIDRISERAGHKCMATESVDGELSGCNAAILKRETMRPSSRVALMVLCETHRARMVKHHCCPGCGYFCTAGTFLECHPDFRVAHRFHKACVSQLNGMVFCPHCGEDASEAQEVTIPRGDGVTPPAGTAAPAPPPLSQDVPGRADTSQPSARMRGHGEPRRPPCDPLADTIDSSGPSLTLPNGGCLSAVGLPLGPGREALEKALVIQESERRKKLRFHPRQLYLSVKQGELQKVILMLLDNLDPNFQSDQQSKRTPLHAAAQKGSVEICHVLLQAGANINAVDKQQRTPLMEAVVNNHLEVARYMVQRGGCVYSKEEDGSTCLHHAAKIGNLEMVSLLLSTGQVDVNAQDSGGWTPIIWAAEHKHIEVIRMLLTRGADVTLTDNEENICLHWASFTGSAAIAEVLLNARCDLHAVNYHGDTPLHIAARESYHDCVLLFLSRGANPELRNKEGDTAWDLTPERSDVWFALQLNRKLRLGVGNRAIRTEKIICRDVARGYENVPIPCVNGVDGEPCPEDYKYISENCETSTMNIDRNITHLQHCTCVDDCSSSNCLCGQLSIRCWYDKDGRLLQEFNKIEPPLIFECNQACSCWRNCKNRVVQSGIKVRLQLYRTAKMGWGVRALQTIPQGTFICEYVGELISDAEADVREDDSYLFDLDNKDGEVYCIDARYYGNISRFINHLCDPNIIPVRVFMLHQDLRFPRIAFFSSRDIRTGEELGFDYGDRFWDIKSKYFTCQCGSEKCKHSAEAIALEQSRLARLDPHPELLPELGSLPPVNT
T1 sequence (Q9H9B1 2-1298 limits assumed): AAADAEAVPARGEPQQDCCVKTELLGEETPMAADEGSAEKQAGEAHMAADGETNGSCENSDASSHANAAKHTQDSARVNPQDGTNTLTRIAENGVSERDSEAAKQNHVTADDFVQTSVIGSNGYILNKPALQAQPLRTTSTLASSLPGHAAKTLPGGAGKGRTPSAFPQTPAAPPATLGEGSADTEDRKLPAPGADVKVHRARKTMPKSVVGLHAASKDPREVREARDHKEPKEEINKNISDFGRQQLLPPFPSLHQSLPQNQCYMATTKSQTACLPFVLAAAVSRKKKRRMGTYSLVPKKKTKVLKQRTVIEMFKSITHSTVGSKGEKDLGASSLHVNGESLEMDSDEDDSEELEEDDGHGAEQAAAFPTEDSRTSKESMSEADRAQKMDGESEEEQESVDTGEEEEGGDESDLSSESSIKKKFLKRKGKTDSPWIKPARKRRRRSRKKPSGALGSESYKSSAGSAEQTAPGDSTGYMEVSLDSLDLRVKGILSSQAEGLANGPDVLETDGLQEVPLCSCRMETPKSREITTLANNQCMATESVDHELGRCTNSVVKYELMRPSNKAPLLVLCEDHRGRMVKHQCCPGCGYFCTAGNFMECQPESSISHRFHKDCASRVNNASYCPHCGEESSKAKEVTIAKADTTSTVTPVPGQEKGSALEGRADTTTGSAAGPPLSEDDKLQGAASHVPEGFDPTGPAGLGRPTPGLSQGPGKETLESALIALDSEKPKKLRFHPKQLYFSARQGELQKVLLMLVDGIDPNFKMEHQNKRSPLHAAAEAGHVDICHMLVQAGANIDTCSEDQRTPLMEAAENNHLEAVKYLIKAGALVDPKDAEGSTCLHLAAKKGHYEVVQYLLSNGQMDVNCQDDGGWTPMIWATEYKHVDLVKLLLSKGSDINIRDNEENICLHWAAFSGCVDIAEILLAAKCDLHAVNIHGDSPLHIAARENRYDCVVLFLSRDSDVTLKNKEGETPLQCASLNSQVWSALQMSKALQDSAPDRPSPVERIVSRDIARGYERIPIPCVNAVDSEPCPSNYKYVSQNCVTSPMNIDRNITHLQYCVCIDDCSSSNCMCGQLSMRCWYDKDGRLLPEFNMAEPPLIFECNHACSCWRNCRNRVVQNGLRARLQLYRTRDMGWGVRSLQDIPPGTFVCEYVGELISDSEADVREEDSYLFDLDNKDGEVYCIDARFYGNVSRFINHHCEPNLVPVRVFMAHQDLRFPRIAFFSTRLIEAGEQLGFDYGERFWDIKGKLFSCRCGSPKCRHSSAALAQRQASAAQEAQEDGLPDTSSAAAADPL


How the values were obtained:
G9a and GLP [1] = target: T1, G9a and GLP; assay: Triple SILAC pull-down after UNC0638 treatment of 293T cells, DMSO/UNC0638 ratio of protein captured by 3×MBT; assay type: cell-based; set-up: endogenous in cells; host or cells: HEK 293T; conditions: for Relative to UNC0638 UNC Heavy / Relative to UNC0638 UNC Light: SILAC ratio DMSO/UNC0638 of protein pulled down with 3xMBT; for Relative to UNC0638 UNC Heavy: UNC0638 in heavy SILAC media; for Relative to UNC0638 UNC Light: UNC0638 in light SILAC media; for Relative to UNC0638 Average: average of UNC Light and UNC Heavy experiments;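 as to all read-outs here: mass spectrometry (Q-Exactive) SILAC quantitation, DMSO/UNC0638 ratio computed after subtracting 3×MBTD355N mutant pull-down background, only proteins with at least twofold 3×MBT over mutant signal considered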
3×MBT domain of L3MBTL1 = assay: Triple SILAC pull-down, 3xMBT/3xMBTD355N ratio (cytoplasmic, nuclear and chromatin fractions of 293T cells); assay type: binding, human; conditions: SILAC ratio, pull-down 3xMBT vs 3xMBTD355N; for 3xMBT/D355N UNC Heavy: experiment with UNC0638 in heavy SILAC media; for 3xMBT/D355N UNC Light: experiment with UNC0638 in light SILAC media;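 as to all read-outs here: proteins quantified with MaxQuant, requiring at least two unique peptides and quantification in both label directions, normalized to the mean of proteins from a digested loading control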
G9a and GLP [2] = target: T1, G9a and GLP; assay: Triple SILAC pull-down after UNC0638 treatment of 293T cells, DMSO/UNC0638 ratio of protein captured by 3×MBT; assay type: cell-based; set-up: cells were treated for 24 hours with UNC0638 at 2.5 μM or DMSO vehicle control; endogenous in cells; host or cells: HEK 293T; conditions: 293T cells;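 also: mass spectrometry (Q-Exactive) SILAC quantitation, DMSO/UNC0638 ratio computed after subtracting 3×MBTD355N mutant pull-down background, only proteins with at least twofold 3×MBT over mutant signal considered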

Molecule | Relative to UNC0638 UNC Heavy (G9a and GLP [1]) | Relative to UNC0638 UNC Light (G9a and GLP [1]) | Relative to UNC0638 Average (G9a and GLP [1]) | 3xMBT/D355N UNC Heavy (3×MBT domain of L3MBTL1) | 3xMBT/D355N UNC Light (3×MBT domain of L3MBTL1) | change in amount captured by 3×MBT following UNC0638 treatment (G9a and GLP [2])
MATR3 (protein, UniProt P43243 2-847, looked up) Matrin-3: SKSFQQSSLSRDSQGHGRDLSAAGIGLLAAATQSLSMPASLGRMNQGTARLASLMNLGMSSSLNQQGAHSALSSASTSSHNLQSIFNIGSRGPLPLSSQHRGDADQASNILASFGLSARDLDELSRYPEDKITPENLPQILLQLKRRRTEEGPTLSYGRDGRSATREPPYRVPRDDWEEKRHFRRDSFDDRGPSLNPVLDYDHGSRSQESGYYDRMDYEDDRLRDGERCRDDSFFGETSHNYHKFDSEYERMGRGPGPLQERSLFEKKRGAPPSSNIEDFHGLLPKGYPHLCSICDLPVHSNKEWSQHINGASHSRRCQLLLEIYPEWNPDNDTGHTMGDPFMLQQSTNPAPGILGPPPPSFHLGGPAVGPRGNLGAGNGNLQGPRHMQKGRVETSRVVHIMDFQRGKNLRYQLLQLVEPFGVISNHLILNKINEAFIEMATTEDAQAAVDYYTTTPALVFGKPVRVHLSQKYKRIKKPEGKPDQKFDQKQELGRVIHLSNLPHSGYSDSAVLKLAEPYGKIKNYILMRMKSQAFIEMETREDAMAMVDHCLKKALWFQGRCVKVDLSEKYKKLVLRIPNRGIDLLKKDKSRKRSYSPDGKESPSDKKSKTDGSQKTESSTEGKEQEEKSGEDGEKDTKDDQTEQEPNMLLESEDELLVDEEEAAALLESGSSVGDETDLANLGDVASDGKKEPSDKAVKKDGSASAAAKKKLKKVDKIEELDQENEAALENGIKNEENTEPGAESSENADDPNKDTSENADGQSDENKDDYTIPDEYRIGPYQPNVPVGIDYVIPKTGFYCKLCSLFYTNEEVAKNTHCSSLPHYQKLKKFLNKLAEERRQKKET | 0.37 log base 2 | 0.14 log base 2 | 0.26 log base 2 | 1.72 log base 2 | 1.77 log base 2 | –
XRN2 (protein, UniProt Q9H0D6 1-950, looked up) 5'-3' exoribonuclease 2: MGVPAFFRWLSRKYPSIIVNCVEEKPKECNGVKIPVDASKPNPNDVEFDNLYLDMNGIIHPCTHPEDKPAPKNEDEMMVAIFEYIDRLFSIVRPRRLLYMAIDGVAPRAKMNQQRSRRFRASKEGMEAAVEKQRVREEILAKGGFLPPEEIKERFDSNCITPGTEFMDNLAKCLRYYIADRLNNDPGWKNLTVILSDASAPGEGEHKIMDYIRRQRAQPNHDPNTHHCLCGADADLIMLGLATHEPNFTIIREEFKPNKPKPCGLCNQFGHEVKDCEGLPREKKGKHDELADSLPCAEGEFIFLRLNVLREYLERELTMASLPFTFDVERSIDDWVFMCFFVGNDFLPHLPSLEIRENAIDRLVNIYKNVVHKTGGYLTESGYVNLQRVQMIMLAVGEVEDSIFKKRKDDEDSFRRRQKEKRKRMKRDQPAFTPSGILTPHALGSRNSPGSQVASNPRQAAYEMRMQNNSSPSISPNTSFTSDGSPSPLGGIKRKAEDSDSEPEPEDNVRLWEAGWKQRYYKNKFDVDAADEKFRRKVVQSYVEGLCWVLRYYYQGCASWKWYYPFHYAPFASDFEGIADMPSDFEKGTKPFKPLEQLMGVFPAASGNFLPPSWRKLMSDPDSSIIDFYPEDFAIDLNGKKYAWQGVALLPFVDERRLRAALEEVYPDLTPEETRRNSLGGDVLFVGKHHPLHDFILELYQTGSTEPVEVPPELCHGIQGKFSLDEEAILPDQIVCSPVPMLRDLTQNTVVSINFKDPQFAEDYIFKAVMLPGARKPAAVLKPSDWEKSSNGRQWKPQLGFNRDRRPVHLDQAAFRTLGHVMPRGSGTGIYSNAAPPPVTYQGNLYRPLLRGQAQIPKLMSNMRPQDSWRGPPPLFQQQRFDRGVGAEPLLPWNRMLQTQNAAFQPNQYQMLAGPGGYPPRRDDRGGRQGYPREGRKYPLPPPSGRYNWN | 0.34 log base 2 | 0.18 log base 2 | 0.26 log base 2 | 2.19 log base 2 | 2.76 log base 2 | –
ACIN1: a known G9a substrate (protein, UniProt Q9UKV3 1-1341, looked up) Apoptotic chromatin …: MWRRKHPRTSGGTRGVLSGNRGVEYGSGRGHLGTFEGRWRKLPKMPEAVGTDPSTSRKMAELEEVTLDGKPLQALRVTDLKAALEQRGLAKSGQKSALVKRLKGALMLENLQKHSTPHAAFQPNSQIGEEMSQNSFIKQYLEKQQELLRQRLEREAREAAELEEASAESEDEMIHPEGVASLLPPDFQSSLERPELELSRHSPRKSSSISEEKGDSDDEKPRKGERRSSRVRQARAAKLSEGSQPAEEEEDQETPSRNLRVRADRNLKTEEEEEEEEEEEEDDEEEEGDDEGQKSREAPILKEFKEEGEEIPRVKPEEMMDERPKTRSQEQEVLERGGRFTRSQEEARKSHLARQQQEKEMKTTSPLEEEEREIKSSQGLKEKSKSPSPPRLTEDRKKASLVALPEQTASEEETPPPLLTKEASSPPPHPQLHSEEEIEPMEGPAPAVLIQLSPPNTDADTRELLVSQHTVQLVGGLSPLSSPSDTKAESPAEKVPEESVLPLVQKSTLADYSAQKDLEPESDRSAQPLPLKIEELALAKGITEECLKQPSLEQKEGRRASHTLLPSHRLKQSADSSSSRSSSSSSSSSRSRSRSPDSSGSRSHSPLRSKQRDVAQARTHANPRGRPKMGSRSTSESRSRSRSRSRSASSNSRKSLSPGVSRDSSTSYTETKDPSSGQEVATPPVPQLQVCEPKERTSTSSSSVQARRLSQPESAEKHVTQRLQPERGSPKKCEAEEAEPPAATQPQTSETQTSHLPESERIHHTVEEKEEVTMDTSENRPENDVPEPPMPIADQVSNDDRPEGSVEDEEKKESSLPKSFKRKISVVSATKGVPAGNSDTEGGQPGRKRRWGASTATTQKKPSISITTESLKSLIPDIKPLAGQEAVVDLHADDSRISEDETERNGDDGTHDKGLKICRTVTQVVPAEGQENGQREEEEEEKEPEAEPPVPPQVSVEVALPPPAEHEVKKVTLGDTLTRRSISQQKSGVSITIDDPVRTAQVPSPPRGKISNIVHISNLVRPFTLGQLKELLGRTGTLVEEAFWIDKIKSHCFVTYSTVEEAVATRTALHGVKWPQSNPKFLCADYAEQDELDYHRGLLVDRPSETKTEEQGIPRPLHPPPPPPVQPPQHPRAEQREQERAVREQWAEREREMERRERTRSEREWDRDKVREGPRSRSRSRDRRRKERAKSKEKKSEKKEKAQEEPPAKLLDDLFRKTKAAPCIYWLPLTDSQIVQKEAERAERAKEREKRRKEQEEEEQKEREKEAERERNRQLEREKRREHSRERDRERERERERDRGDRDRDRERDRERGRERDRRDTKRHSRSRSRSTPVRDRGGRR | – | – | – | – | – | decreased strongly
